Laboratory results: patent US20050064507A1, “Determining kinase specificity” (priority 2003, published 2005)

What was measured:
PKC-epsilon = target: T1, PKC-epsilon (Homo sapiens, UniProt Q02156); test: In vitro kinase assay: peptide phosphorylation by PKC-epsilon; assay type: biochemical; details: for PKC-epsilon phosphorylation: normalized to best substrate; for phosphorylation by PKC epsilon: peptide concentration 1 uM
T1 construct: purchased Calbiochem
T1 sequence (Q02156 1-737): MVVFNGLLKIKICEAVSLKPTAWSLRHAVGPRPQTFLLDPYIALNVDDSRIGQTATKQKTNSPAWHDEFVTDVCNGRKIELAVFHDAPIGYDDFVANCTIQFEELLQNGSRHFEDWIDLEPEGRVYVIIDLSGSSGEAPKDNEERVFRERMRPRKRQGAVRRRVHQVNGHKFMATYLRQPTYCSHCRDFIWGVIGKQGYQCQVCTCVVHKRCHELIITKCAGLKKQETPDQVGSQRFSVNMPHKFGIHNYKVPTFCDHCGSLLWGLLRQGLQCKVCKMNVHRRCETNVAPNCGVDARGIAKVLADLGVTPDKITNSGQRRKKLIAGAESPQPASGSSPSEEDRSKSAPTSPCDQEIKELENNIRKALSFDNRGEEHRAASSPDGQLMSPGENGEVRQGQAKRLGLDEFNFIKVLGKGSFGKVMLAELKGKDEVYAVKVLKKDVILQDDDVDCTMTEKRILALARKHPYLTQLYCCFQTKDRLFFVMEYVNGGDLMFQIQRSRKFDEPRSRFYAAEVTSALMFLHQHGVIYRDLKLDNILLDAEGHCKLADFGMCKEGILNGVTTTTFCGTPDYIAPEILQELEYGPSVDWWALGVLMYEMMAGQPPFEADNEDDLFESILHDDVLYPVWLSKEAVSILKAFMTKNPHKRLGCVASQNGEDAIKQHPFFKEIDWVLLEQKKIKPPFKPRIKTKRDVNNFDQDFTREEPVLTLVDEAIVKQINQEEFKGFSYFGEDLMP
Procedure: Catalytically active preparations of the kinases of interest were either purchased or prepared. Purchased and tested active kinase preparations including the following: PKC-alpha, PKC-delta, PKC-epsilon, PKC-zeta, PKC-mu, PKA, PKG from Calbiochem, ROK alpha/ROCK-II, active from Upstate Biotechnology, and AKT1 from Panvera.
(§1) The conditions of the kinase assay and the amount of active kinase used varied with the kinase and with the accuracy needed. For a typical experiment, 5-20 ng of kinase was used per well and each peptide pool was assayed in duplicate wells. Note that the absolute amount of kinase used was not usually a critical parameter, because the desired information related to specificity of the kinase not its absolute activity, and robustness of the assay depends on comparisons of the same amount of kinase on different peptides. The combination of kinase concentration and assay duration was modified to assure that the stoichiometry of peptide phosphorylation never exceeded 5%. The choice of kinase buffer depended on the kinase being analyzed. For studies of PKC, 100 mM HEPES, 0.05% Triton-X100, 1 mM CaCl2, 20 mM MgCl2, 0.2 mg/ml phosphatidyl serine (Avanti Polar Lipids), PMA 100 ng/ml was typically used. The lipid stock was prepared by transferring 3 mg phosphatidyl serine into iced mixture of 450 μl water plus 50 μl of 10% Triton-X100, sonicating 10 times on ice for 1 sec each.
(§2) The kinase reaction mixture was assembled by sequential addition to a tube held on ice of: 5 μl peptide (100 μM for final concentration of 10 μM), 15 μl of kinase (typically 5 ng/well, in appropriate kinase buffer), 30 μl of ATP (1 uCi/well of ^32P-gamma ATP in a stock of 167 μM cold ATP in the kinase buffer; for final concentration for 100 μM ATP). The mixture was rapidly warmed to desired reaction temperature (30° C. for PKC) and incubated for the desired duration (usually 10 minutes). The kinase assay was terminated by transfer to 4° C. water batch, and rapid addition of an equal volume (50 μl) of stop solution [0.1M ATP+0.1M EDTA in water, pH 8].
(§3) The peptides were then captured from the reaction mixture by transfer to a Reacti-Bind Streptavidin High Binding Capacity Coated Plates (HBC) (Pierce Biotechnology) as follows. The HBC plates were pre-rinsed three times with PBS/Tween PBS/Tween20 0.05% (PBS/Tween). Part of all of the reaction mixture was then transferred wells of a HBC plate pre-filled with 90 μl of phosphate-buffered saline (PBS); typically each aliquots of each phosphorylation reaction were transferred to duplicate HBC plates to assure accuracy by additional replication
For kinase assays done at the standard peptide concentration of 10 μM, the peptide concentration in the reaction mixture becomes 5 μM after addition of the stop solution; consequently 10 μl of the reaction (50 pMoles of peptide) was transferred to the HBC plate. More generally, the amount of reaction mixture transferred was estimated to be about 50 pMoles of peptide. […] The HBC plates were incubated for 0.5 to 1.5 hr at room temperature for complete binding of biotinylated peptides to plate-bound streptavidin. The HBC plates were then washed extensively with PBS/Tween. Five washes were done routinely and additional wash steps were added if the wash solution removed from the plate had measurable radioactivity as detected using a Geiger counter. This step is essential to obtaining a good the signal to noise ratio because the fraction of radioactivity incorporated in the peptides was a tiny fraction of the total in the reaction mixture. The wells were air-dried. A volume of 40-50 μl of microScint-20 (Packard Instruments) was added to each well. The plates were covered with stick-on film sheet. Radioactive emissions were measured in a TopCount NXT Microplate Scintillation and Luminescence Counter (Packard Instruments). Typically samples were counted for 5 minutes (or more) to improve the signal to noise ratio when counts were low. […]

PKC = test: In vitro phosphorylation by PKC (average of isoforms alpha, epsilon, delta, theta); assay type: biochemical; details: for PKC average: average of PKC-alpha, -epsilon, -theta, normalized to best substrate; for average (phosphorylation by PKC-theta, -delta, -epsilon, -alpha): average over PKC-theta, -epsilon and -alpha at 10 and 1 uM peptide, relative to best substrate
Procedure: as §1, §2, §3
For kinase assays done at the standard peptide concentration of 10 μM, the peptide concentration in the reaction mixture becomes 5 μM after addition of the stop solution; consequently 10 μl of the reaction (50 pMoles of peptide) was transferred to the HBC plate. More generally, the amount of reaction mixture transferred was estimated to be about 50 pMoles of peptide. […] The HBC plates were incubated for 0.5 to 1.5 hr at room temperature for complete binding of biotinylated peptides to plate-bound streptavidin. The HBC plates were then washed extensively with PBS/Tween. Five washes were done routinely and additional wash steps were added if the wash solution removed from the plate had measurable radioactivity as detected using a Geiger counter. This step is essential to obtaining a good the signal to noise ratio because the fraction of radioactivity incorporated in the peptides was a tiny fraction of the total in the reaction mixture. The wells were air-dried. A volume of 40-50 μl of microScint-20 (Packard Instruments) was added to each well. The plates were covered with stick-on film sheet. Radioactive emissions were measured in a TopCount NXT Microplate Scintillation and Luminescence Counter (Packard Instruments). Typically samples were counted for 5 minutes (or more) to improve the signal to noise ratio when counts were low.
Many peptides that are good substrates for PKC enzymes were identified using the methods of the invention. For example, Tables 4 and 5 provide a listing of peptides identified as potentially useful kinase substrates. […]

Substance | PKC-epsilon phosphorylation (PKC-epsilon) | PKC average (PKC) | phosphorylation by PKC epsilon (PKC-epsilon) | average (phosphorylation by PKC-theta, -delta, -epsilon, -alpha) (PKC)
81 (KRERKTSSKSSVRKRR) [compound 81] | 59% | 56% |  | 
87 (RQGKRKTSIKRDTVNPL) [compound 87] | 31% | 47% |  | 
88 (KKPFKLSGLSFKRNRKE) [compound 88] | 44% | 43% |  | 
91 (VHYTSKDTLRKRHYWR) [compound 91] | 49% | 40% |  | 
97 (KKRSSKKEASMKKVVRP) [compound 97] | 16% | 28% |  | 
98 (AGPLRKSSLKKGGRL) [compound 98] | 34% | 27% |  | 
148 (RELEQLKAEYLERRASRRRA) [compound 148] |  |  | 33 | 26
149 (RVVQSVKHTKRKSSTVMK) [compound 149] |  |  | 27 | 25
150 (VDPFYEMLAARKKRISVKKK) [compound 150] |  |  | 20 | 24
151 (PQNSLKASNRKKKRTSFKRK) [compound 151] |  |  | 24 | 24
152 (DLIEGRKGAQIVKRASLKRG) [compound 152] |  |  | 25 | 23
153 (TYLLPDKSRQGKRKTSIKRD) [compound 153] |  |  | 24 | 23
